Measured values reported in paper PMC5029660, “The DEK oncogene activates VEGF expression and promotes tumor angiogenesis and growth in HIF-1α-dependent and -independent manners”.

B1: DRE2 (dsDNA)
DNA 1: TGGAAAGGGAGGGTTGGGGTGGGTGGGAGCCAGCCCT
DNA 2: AGGGCTGGCTCCCACCCACCCCAACCCTCCCTTTCCA
B2: HRE (dsDNA)
DNA 1: ACAGTGCATACGTGGGCTCCAACAGGTCCTCTTCCCTCCC
DNA 2: GGGAGGGAAGAGGACCTGTTGGAGCCCACGTATGCACTGT
B3: DRE1-M (dsDNA)
DNA 1: GGGTTGAGGGCGGGTTCTATTTGAGAAGGCCAGGGGT
DNA 2: ACCCCTGGCCTTCTCAAATAGAACCCGCCCTCAACCC
B4: DRE1 (dsDNA)
DNA 1: GGGTTGAGGGCGTTGGAGCGGGGAGAAGGCCAGGGGT
DNA 2: ACCCCTGGCCTTCTCCCCGCTCCAACGCCCTCAACCC

Assays:
[1] = biological target: T1, His-DEK (UniProt P35659 1-375); assay: EMSA; LightShift Chemiluminescent EMSA Kit (Pierce), per manufacturer; buffer, salt, pH and temperature not stated; settings: protein: recombinant; tags: His; label: biotin; blunt
T1 sequence: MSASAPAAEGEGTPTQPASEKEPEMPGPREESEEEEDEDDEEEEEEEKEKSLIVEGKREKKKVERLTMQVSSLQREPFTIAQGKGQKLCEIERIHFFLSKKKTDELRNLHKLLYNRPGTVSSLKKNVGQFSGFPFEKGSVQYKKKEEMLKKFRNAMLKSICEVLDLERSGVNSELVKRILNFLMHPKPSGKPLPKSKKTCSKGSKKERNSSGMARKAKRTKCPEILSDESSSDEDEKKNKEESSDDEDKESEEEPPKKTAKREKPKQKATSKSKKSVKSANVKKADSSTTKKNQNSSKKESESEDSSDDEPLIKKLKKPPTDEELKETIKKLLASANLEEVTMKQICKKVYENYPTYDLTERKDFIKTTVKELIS

[2] = biological target: T1, His-DEK; assay: EMSA; abolished by 100-fold excess unlabeled DRE1; LightShift Chemiluminescent EMSA Kit (Pierce), per manufacturer; buffer, salt, pH and temperature not stated; settings: protein: recombinant; tags: His; label: biotin; blunt

| Binder | binding result [1] | binding result [2] |
| --- | --- | --- |
| B1 | no binding |  |
| B2 | no binding |  |
| B3 | no binding |  |
| B4 |  | binds |
